Reference: article PMC10626419, “DONSON is required for CMG helicase assembly in the mammalian cell cycle” (EMBO Reports, 2023)

Molecular target: T1, Recombinant mouse CMG helicase (CDC45‐MCM‐GINS) (mouse, UniProt Q9Z1X9 1-566; P97310 1-904; P25206 1-812; P49717 1-862; P49718 1-734; P97311 …)
T1 construct: CDC45, mouse; MCM2, mouse; MCM3, mouse; MCM4, mouse; MCM5, mouse; MCM6, mouse; MCM7, mouse; PSF1 (GINS subunit), mouse; fourth GINS subunit, mouse; PSF3 (GINS subunit), mouse; SLD5 (GINS subunit), mouse; The complex was captured on IgG Sepharose and released with TEV protease, so one subunit carried a cleavable tag; source: budding yeast strain YCE1259 co-expressing the 11 subunits, purified (IgG …)
Test: co-IP; purified recombinant mouse DONSON and CMG incubated in 25 mM Hepes‐KOH pH 7.6, 200 mM KOAc, 0.02% NP‐40, 10 mM MgOAc, 1 mM DTT, 0.1 mg/ml BSA for 30 min on ice; CMG isolated on magnetic beads coupled to MCM6 antibody, 1 h on ice; immunoblotting (Fig 1C)
Settings: both partners purified

B1: Recombinant mouse DONSON (natural protein, UniProt Q9QXP4 1-560, looked up)
chain: MAVSVPGYSPSFKRPPETVRLRRKRSRDHGAAVPASLPEPAPRRAALAAGLPLRPFPTAGGRGGAAATIARRNPFARLDNRPRVSDEASEEPLRGPQGASGPLLDSNEENNLLWEDTSSHERTGTELSQSQRVSLSESDTWSSDGTELPVDWSIKTRLLFTSSQPFSWADHLKAQEEAQGLVQHCRATEVTLPQSIQDPKLSTALRCAFQQALVYWLHPAFSWLPLFPRIGADRKMAAKTSPWSADETLQHALMSDWSVSFTSLYNLLKTKLCPYFYVCSYQFTVLFRAAGLAGSSVITALISPTTRGLREAMRNEGIEFSLPLLEEIGHKKKVRDPSLESEEEQAVSDEDEEESFSWLEEIGVQDQIKKPDVISIKLRKEKHEVQMDHRPESVVLVKGLNTFKLLNFLINCKSLVATSGAQAGLPPTLLSPIAFRGASMQMLKARSSNVKTQALSGYRDKFSLDITGPVMPHALHSMSMLLRSSQRGSFSAGLYAHEPTAVFNVGLSLDKELDRKVAREDLANCGLHPKTLEQLSQRPVLGKSSLRSVEMSDYILSWRS
notes: DONSON, mouse; also called His‐SUMO‐DONSON (before cleavage); source: E. coli Rosetta (DE3) pLys, purified (Ni‐NTA, ULP1 cleavage, Superdex 200)
- binding result: binds
